Measured values taken from US20230293647A1 (AUTOLUS, published 2023).

B1: 74655 (Fc fusion)
scFv-Fc: QVQLVQSGAEVKKPGASVKVSCKASGYTFTTYGISWVRQAPGQGLEWMGWISAYNGNTNYAQKLQGRVTMTTDTSTSTAYMELRSLRSDDTAVYYCARDDLSDYGEWLGPDYWGQGTLVTVSSQPGLTQPPSASGTPGQRVTISCSGSRSNIGGNTVNWYQHVPGTAPKLLIYSNNQRPSGVPDRFSGSKSGTSASLAISGLRSEDEAEYYCATWEDSLSGYVFGPGTKVTVL
B2: 74652 (Fc fusion)
scFv-Fc: QVQLLESGAELVKPGASVKVSCKASGYTFTSYWIHWVKQRPGQGLEWIGEINPSNGRTNYNGNFESKATLTVDKSSNTAYMHLSSLTYEDSAVYHCTRLDYWGQGTTLTVSSELVMTQSPASLSVITGKKVTIRCISNTDIDDDLNWSQLKAGEPPKLLISEGNIFSPGVPSRFSSSGNGTDFVFTIENTLSEDVANNYCFQSDNMPFTFGSGTKLEIK
B3: 74662 (Fc fusion)
scFv-Fc: EVQLVESGGGLVQPGGSLRLSCAASGFTFSGYPMHWVRQAPGKGLEWVAVISYDGSNKYYADSVKGRFTISRDNSKNTLYLQMNSLRAEDTAVYYCAKDGSPRTPSFDYWGQGTLVTVLEDIQMTQSPHSLSASVGDRVTITCRASQGISNYLAWYQQKPGKVPKLLIYAASTLQSGVPSRFSGSGSGTDFTLTISSLQPEDVGVYYCQQRFRTPVTFGQGTKLEIK
B4: 74648 (Fc fusion)
scFv-Fc: EVQLVQSGGGVVQPGKSLRLSCAASGFAFSSYAMHWVRQAPGKGLEWVAVISYDGSNKYYADSVKGRFTISRDNSKNTLYLQMNSLRAEDTAVYYCARDRSYYLDYWGQGTLVTVSSETTLTQSPATLSLSPGERATLSCRASQSVRSNLAWYQQKPGQAPRPLIYDASTRATGIPDRFSGSGSGTDFTLTISRLEPEDFAVYYCQQRSNWPPTFGQGTKVEVK
B5: 74653 (Fc fusion)
scFv-Fc: QVQLQQPGAELVKPGASVKVSCKASGYTFTNYWIHWVKQRPGQGLEWIGEINPGNGRTNYNGNFMNKATLTVDKSSNTAYMQLSSLTSEDSAVYHCARLDYWGQGTTLTVSSELVMTQSPASLSVATGKKVTIRCISSTDIDDDMNWYQQKAGKPPKLLISEGNIFSPGVPSRFSSSGNGTDFVFTVENTLSEDVADNYCLQSDNMPFTFGSGTKLGIK
B6: 74649 (Fc fusion)
scFv-Fc: QAQLVESGGALVQPGRSLRLSCAASGFTFRNYAMHWVRQAPATGLQWLAVITSDGRNKFYADSVKGRFTISREDSKNTLYLQMDSLRGEDTAVYYCVTQRDNSRDYFPHYFHDMDVWGQGTTVAVSSDVVLTQSPLSLPVTLGQPASISCRSSQSLVYSDGDTYLNWFQQRPGQSPRRLIYQVSNRDSGVPDRFSGSGSGTDFTLKISRVEAEDVGVYYCMQGSHWPPTFGQGTKVEIK
B7: dAb clone 9 fused to Fc (Fc fusion)
chain: QVQLQESGGGLVQAGDSLRLSCAASGRTSDTMTIGWFRQAPGKEREFVASINWSGSTTYYADSVNERFTISRDDAKNTVYLQMNSLKPEDTAVYYCAAKRGVWTIKSAAADFASWGQGTQVTVSS
notes: also called clone C9 fused to Fc
B8: 74651 (Fc fusion)
scFv-Fc: EVQLEESGTVLARPGASVKMSCKASGYTFTTYRMHWIKQRPGQGLEWIGAIYPGNSDTTYNQKFKDKAKLTAVTSTSSAYMELSSLTNEDSAVYFCTREGIPQLLRTLDYWGQGTSVTVSSDILMTQSPSSLSASLGERVSLTCRASQEISGYLSWLQEKPDGTIKRLIYAASTLDSGVPKRFSGSRSGSDYSLTISSLESEDFADYYCLQYVSYPWTFGGGTKLEIK
B9: 74650 (Fc fusion)
scFv-Fc: QVQLQQSGAEVKKPGSSVKVSCKASGGTFSSYTISWVRQAPGQGLEWMGGITPILGIANYAQKFQGRVTITTDESTSTAYMELSSLRSEDTAVYYCARDTVMGGMDVWGQGTTVTVSSSYELTQPPSVSVAPGKTARITCGGNNIGSKSVHWYQQKPGQAPVLVVYDDSDRPSGIPERFSGSNSGNTATLTISRVEAGDEADYYCQVWDSSSDYVFGTGTKVTVL
B10: 74667 (Fc fusion)
scFv-Fc: QVQLVQSGAEVKKPGESLKISCKGSGYSFANHWIAWVRQMPGKGLEWMGIFNPDNSDTTYSPSFQGQVTFSADKSISIAYLHWSSLKASDTAIYYCARLALSDGWLHDFWGQGTLVTVSSEIVMTQSPLSLPVTLGQPASISCKSSQSLVDTNGNTYLIWFHQRPGQSPRRLIYQVSKRDSGVPDRFSGSGSGTDFTLKISRVEAEDVGVYFCMQGTYRPPTLGQGTKVEIK

Key:
[1] = biological target: T1, SARS-CoV-2 Spike protein, S1 subunit (recombinant) (SARS-CoV-2, UniProt P0DTC2 16-681); experiment: ELISA, scFv-Fc supernatant on coated SARS-CoV-2 S1; cut-off 3x background
[2] = biological target: SARS-CoV S1 spike protein domain (recombinant) (SARS-CoV, UniProt P59594 14-667); experiment: ELISA on coated SARS-CoV S1
[3] = biological target: T1, SARS-CoV-2 Spike protein, S1 subunit …; experiment: ELISA, coated SARS-CoV-2 S1; x axis Log Dilution factor, no concentration

Binder	binding result [1]	binding result [2]	binding result [3]
B1	no binding (tested: approximately 10 µg/ml)	–	–
B2	no binding (tested: approximately 10 µg/ml)	–	–
B3	no binding (tested: approximately 10 µg/ml)	–	–
B4	no binding (tested: approximately 10 µg/ml)	–	–
B5	no binding (tested: approximately 10 µg/ml)	–	–
B6	no binding (tested: approximately 10 µg/ml)	–	–
B7	–	no binding	binds
B8	no binding (tested: approximately 10 µg/ml)	–	–
B9	no binding (tested: approximately 10 µg/ml)	–	–
B10	no binding (tested: approximately 10 µg/ml)	–	–
